Assay results: patent US20210040206A1
Values belong to the binder of their own block, whether it stands above or below them.

Assays:
[1] = target: SIRPa v2 (antigen of the ELISA of FIG. 9B) (human) (UniProt P78324); experiment: ELISA against SIRPa v2; given as ED50
[2] = target: human SIRPa expressed by blood monocytes of heterozygous V1/V2 donors (cells carry both SIRPa v1 and SIRPa v2); experiment: flow cytometry competition, recombinant CD47-Fc on heterozygous V1/V2 monocytes (n=5)
[3] = target: human SIRPa expressed by blood monocytes of heterozygous V1/V2 donors (cells carry both SIRPa v1 and SIRPa v2); experiment: FACS competition on human monocytes of V1/V2 donors; blocked ligand: biotinylated CD47Fc, revealed with streptavidin-PE
[4] = target: SIRPa V1 recombinant protein (extracellular domain fused with mouse Fc from IgG2a) (human; mouse) (UniProt P78324); experiment: ELISA on immobilised SIRPa variant-mouse Fc, donkey anti-human IgG peroxidase, TMB 450 nm; given as ED50
Sequence of SIRPa V1 recombinant protein (extracellular domain fused with mouse Fc from IgG2a) (human; mouse) (P78324 31-373 limits assumed): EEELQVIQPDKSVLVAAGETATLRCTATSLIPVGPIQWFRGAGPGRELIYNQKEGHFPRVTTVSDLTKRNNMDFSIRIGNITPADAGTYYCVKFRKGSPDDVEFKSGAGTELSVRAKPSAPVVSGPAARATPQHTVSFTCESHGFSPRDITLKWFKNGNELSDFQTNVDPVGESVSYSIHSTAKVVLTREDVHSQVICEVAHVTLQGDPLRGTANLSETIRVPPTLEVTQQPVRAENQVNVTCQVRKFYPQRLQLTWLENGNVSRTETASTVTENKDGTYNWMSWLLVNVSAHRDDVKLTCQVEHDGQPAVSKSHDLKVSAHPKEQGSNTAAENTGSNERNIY

[5] = target: SIRPa V3 (SNP1 + 2 + 3 + 4 + 5 + 6) recombinant protein, extracellular domain fused with mouse Fc from IgG2a (human; mouse) (UniProt P78324); experiment: as above
Sequence of SIRPa V3 (SNP1 + 2 + 3 + 4 + 5 + 6) recombinant protein, extracellular domain fused with mouse Fc from IgG2a (human; mouse) (P78324 other isoform, or with tags, fused parts or gaps limits assumed): as the sequence (P78324 31-373 limits assumed) above, with L14S, T20S, T22I, R24H, A27V counted along it

[6] = target: SIRPa V4 (SNP8) recombinant protein, extracellular domain fused with mouse Fc from IgG2a (human; mouse) (UniProt P78324); experiment: as above
Sequence of SIRPa V4 (SNP8) recombinant protein, extracellular domain fused with mouse Fc from IgG2a (human; mouse) (P78324 31-373 G75A limits assumed): as the sequence (P78324 31-373 limits assumed) above, with G45A counted along it

[7] = target: SIRPa V5 (SNP9 + 10 + 11) recombinant protein, extracellular domain fused with mouse Fc from IgG2a (human; mouse) (UniProt P78324); experiment: as above
Sequence of SIRPa V5 (SNP9 + 10 + 11) recombinant protein, extracellular domain fused with mouse Fc from IgG2a (human; mouse) (P78324 31-373 D95E/L96S limits assumed): as the sequence (P78324 31-373 limits assumed) above, with D65E, L66S counted along it

[8] = target: SIRPa V6 (SNP12 + 13) recombinant protein, extracellular domain fused with mouse Fc from IgG2a (human; mouse) (UniProt P78324); experiment: as above
Sequence of SIRPa V6 (SNP12 + 13) recombinant protein, extracellular domain fused with mouse Fc from IgG2a (human; mouse) (P78324 31-373 N100E limits assumed): as the sequence (P78324 31-373 limits assumed) above, with N70E counted along it

[9] = target: SIRPa V7 (SNP14 + ?) recombinant protein, extracellular domain fused with mouse Fc from IgG2a (human; mouse) (UniProt P78324); experiment: as above
Sequence of SIRPa V7 (SNP14 + ?) recombinant protein, extracellular domain fused with mouse Fc from IgG2a (human; mouse) (P78324 31-373 R107S/G109S limits assumed): as the sequence (P78324 31-373 limits assumed) above, with R77S, G79S counted along it

[10] = target: SIRPa V8 (SNP15 + 16) recombinant protein, extracellular domain fused with mouse Fc from IgG2a (human; mouse) (UniProt P78324); experiment: as above
SIRPv2 (human;mouse) = SIRPv2 (human;mouse) (UniProt P78324); experiment: as above
Sequence of SIRPv2 (human;mouse) (P78324 31-373): as the sequence (P78324 31-373 limits assumed) above

Sequence of SIRPa v2 (antigen of the ELISA of FIG. 9B) (human) (P78324 other isoform, or with tags, fused parts or gaps limits assumed): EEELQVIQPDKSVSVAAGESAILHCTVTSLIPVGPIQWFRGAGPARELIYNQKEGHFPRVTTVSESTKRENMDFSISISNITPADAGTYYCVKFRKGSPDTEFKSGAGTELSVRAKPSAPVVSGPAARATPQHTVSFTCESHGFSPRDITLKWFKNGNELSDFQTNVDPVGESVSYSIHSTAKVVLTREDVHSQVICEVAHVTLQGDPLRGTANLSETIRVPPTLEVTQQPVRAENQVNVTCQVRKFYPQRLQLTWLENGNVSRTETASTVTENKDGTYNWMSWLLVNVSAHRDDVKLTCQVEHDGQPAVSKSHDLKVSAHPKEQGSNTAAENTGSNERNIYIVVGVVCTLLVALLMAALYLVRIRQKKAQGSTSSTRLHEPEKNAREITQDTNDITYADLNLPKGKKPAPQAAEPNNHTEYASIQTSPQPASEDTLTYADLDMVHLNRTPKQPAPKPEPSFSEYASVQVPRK

EC50 [1]: 5720 ng/mL
B1: chimeric 18D5 antibody (antibody, from a related filing, V domains shown)
VH: QVQLQQPGAELVRPGSSVKLSCKASGYTFTSYWVHWVKQRPIQGLEWIGNIDPSDSDTHYNQKFKDKASLTVDKSSSTAYMQLSSLTFEDSAVYYCVRGGTGTMAWFAYWGQGTLVTVSA
VL: DVVMTQTPLSLPVSLGDQASISCRSSQSLVHSYGNTYLYWYLQKPGQSPKLLIYRVSNRFSGVPDRFSGSGSGTDFTLKISRVEAEDLGVYFCFQGTHVPYTFGSGTKLEIKR

reduction of CD47-Fc binding [2]: 50% | IC50 (read off the curve) [3]: 100 ng/mL
B2: in-house anti-human SIRPa v1 antibody (antibody, human IgG4, V domains shown)
VH: EVQLVQSGAEVKKPGESLRISCKASGYSFTSYWVHWVRQMPGKGLEWMGNIDPSDSDTHYSPSFQGHVTLSVDKSISTAYLQLSSLKASDTAMYYCVRGGTGTLAYFAYWGQGTLVTVSS
VL: DVVMTQSPLSLPVTLGQPASISCRSSQSLVHSYGNTYLYWFQQRPGQSPRLLIYRVSNRFSGVPDRFSGSGSGTDFTLKISRVEAEDVGVYYCFQGTHVPYTFGGGTKVEIK

EC50 [4]: 0.77 ng/mL | EC50 [5]: 0.77 ng/mL | EC50 [6]: 0.74 ng/mL | EC50 [7]: 0.78 ng/mL | EC50 [8]: 0.75 ng/mL | EC50 [9]: 0.6 ng/mL | EC50 [10]: 0.93 ng/mL | EC50 (SIRPv2 (human;mouse)): 0.77 ng/mL
B3: Kwar antibody (antibody, from a related filing, V domains shown)
VH: EVQLQQSGAELVKPGASVKLSCTASGFNIKDYYIHWVQQRTEQGLEWIGRIDPEDGETKYAPKFQDKATITADTSSNTAYLHLSSLTSEDTAVYYCARWGAYWGQGTLVTVSS
VL: QIVLTQSPAIMSASPGEKVTLTCSASSSVSSSYLYWYQQKPGSSPKLWIYSTSNLASGVPARFSGSGSGTSYSLTISSMEAEDAASYFCHQWSSYPRTFGAGTKLELK
